For twelve molecules, Kd results are on record in patent US20250049970A1, “DLL3 TARGETING PEPTIDES AND CONSTRUCTS THEREOF” (MARIANA ONCOLOGY INC., priority 2023, published 2025).

For this assay, the target named is T1, DLL3 (target ligand immobilized on a SA sensor chip via streptavidin capture) (Homo sapiens (Human), UniProt Q9NYJ7 27-492, limits assumed).
T1 sequence: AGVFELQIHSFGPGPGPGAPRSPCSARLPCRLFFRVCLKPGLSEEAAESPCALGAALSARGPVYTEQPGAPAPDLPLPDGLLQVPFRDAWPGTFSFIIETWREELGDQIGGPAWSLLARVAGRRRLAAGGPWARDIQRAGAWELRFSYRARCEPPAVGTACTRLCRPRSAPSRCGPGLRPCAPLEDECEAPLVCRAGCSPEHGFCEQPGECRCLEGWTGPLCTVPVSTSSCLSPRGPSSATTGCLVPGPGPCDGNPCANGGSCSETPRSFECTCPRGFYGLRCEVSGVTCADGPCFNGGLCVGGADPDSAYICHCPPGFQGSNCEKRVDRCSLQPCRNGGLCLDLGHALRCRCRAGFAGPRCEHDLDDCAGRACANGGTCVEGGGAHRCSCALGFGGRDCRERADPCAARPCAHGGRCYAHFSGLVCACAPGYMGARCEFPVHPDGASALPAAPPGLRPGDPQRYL
Briefly: SPR, Biacore S200, target ligand on SA chip, 25 C, 1:1 fit. The method, then: Target ligand was immobilized on a SA sensor chip via streptavidin capture. A reference surface was set up for nonspecific binding and refractive index changes. For analysis of the kinetics of interactions, varying concentrations of peptides were injected at a flow rate of 50 μL/minute using running buffer containing 20 mM phosphate buffer with 2.7 mM KCl, 137 mM NaCl and 0.05% Surfactant P20. Sensorgram curves were fitted with 1:1 binding model, and affinity and kinetic parameters were obtained using either Biacore S200 evaluation software 1.1.1 or Biacore Insight evaluation 4.0.
For orientation: Surface plasmon resonance follows binding to a sensor surface in real time, without labels.

Bridges are numbered along the chain shown (N, C = ends). [ ]: non-standard residue; d: D form.

B1: SEQ ID NO 68 (peptide)
peptide: Ac-WTICADWAQCWP-NH2
modifications: disulfide 4-10
SMILES: CC[C@H](C)[C@H](NC(=O)[C@@H](NC(=O)[C@H](Cc1c[nH]c2ccccc12)NC(C)=O)[C@@H](C)O)C(=O)N[C@H]1CSSC[C@@H](C(=O)N[C@@H](Cc2c[nH]c3ccccc23)C(=O)N2CCC[C@H]2C(N)=O)NC(=O)[C@H](CCC(N)=O)NC(=O)[C@H](C)NC(=O)[C@H](Cc2c[nH]c3ccccc23)NC(=O)[C@H](CC(=O)O)NC(=O)[C@H](C)NC1=O
B1 came in with a Kd of 6.1 nM.

B2: SEQ ID NO 73 (peptide)
peptide: Ac-MWTLCDNWQTCWP-NH2
modifications: disulfide 5-11
SMILES: CSCC[C@H](NC(C)=O)C(=O)N[C@@H](Cc1c[nH]c2ccccc12)C(=O)N[C@H](C(=O)N[C@@H](CC(C)C)C(=O)N[C@H]1CSSC[C@@H](C(=O)N[C@@H](Cc2c[nH]c3ccccc23)C(=O)N2CCC[C@H]2C(N)=O)NC(=O)[C@H]([C@@H](C)O)NC(=O)[C@H](CCC(N)=O)NC(=O)[C@H](Cc2c[nH]c3ccccc23)NC(=O)[C@H](CC(N)=O)NC(=O)[C@H](CC(=O)O)NC1=O)[C@@H](C)O
Take B2: binding was put at a Kd of 42 nM.

B3: SEQ ID NO 74 (peptide)
peptide: Ac-MWQLCEWNNCWPV-NH2
modifications: disulfide 5-10
SMILES: CSCC[C@H](NC(C)=O)C(=O)N[C@@H](Cc1c[nH]c2ccccc12)C(=O)N[C@@H](CCC(N)=O)C(=O)N[C@@H](CC(C)C)C(=O)N[C@H]1CSSC[C@@H](C(=O)N[C@@H](Cc2c[nH]c3ccccc23)C(=O)N2CCC[C@H]2C(=O)N[C@H](C(N)=O)C(C)C)NC(=O)[C@H](CC(N)=O)NC(=O)[C@H](CC(N)=O)NC(=O)[C@H](Cc2c[nH]c3ccccc23)NC(=O)[C@H](CCC(=O)O)NC1=O
In the case of B3, binding was put at a Kd of 110 nM.

B4: SEQ ID NO 70 (peptide)
peptide: Ac-MWKICSDWQNCWP-NH2
modifications: disulfide 5-11
SMILES: CC[C@H](C)[C@H](NC(=O)[C@H](CCCCN)NC(=O)[C@H](Cc1c[nH]c2ccccc12)NC(=O)[C@H](CCSC)NC(C)=O)C(=O)N[C@H]1CSSC[C@@H](C(=O)N[C@@H](Cc2c[nH]c3ccccc23)C(=O)N2CCC[C@H]2C(N)=O)NC(=O)[C@H](CC(N)=O)NC(=O)[C@H](CCC(N)=O)NC(=O)[C@H](Cc2c[nH]c3ccccc23)NC(=O)[C@H](CC(=O)O)NC(=O)[C@H](CO)NC1=O
Turning to B4, the affinity, expressed as Kd, was 340 nM.

B5: SEQ ID NO 83 (peptide)
peptide: Ac-MWTICNNWH[dA]CWP-NH2
modifications: disulfide 5-11
SMILES: CC[C@H](C)[C@H](NC(=O)[C@@H](NC(=O)[C@H](Cc1c[nH]c2ccccc12)NC(=O)[C@H](CCSC)NC(C)=O)[C@@H](C)O)C(=O)N[C@H]1CSSC[C@@H](C(=O)N[C@@H](Cc2c[nH]c3ccccc23)C(=O)N2CCC[C@H]2C(N)=O)NC(=O)[C@@H](C)NC(=O)[C@H](Cc2c[nH]cn2)NC(=O)[C@H](Cc2c[nH]c3ccccc23)NC(=O)[C@H](CC(N)=O)NC(=O)[C@H](CC(N)=O)NC1=O
Molecule B5 showed a Kd of 320 nM.

B6: SEQ ID NO 87 (peptide)
peptide: Ac-MWAICNNWHDCWP-NH2
modifications: disulfide 5-11
SMILES: CC[C@H](C)[C@H](NC(=O)[C@H](C)NC(=O)[C@H](Cc1c[nH]c2ccccc12)NC(=O)[C@H](CCSC)NC(C)=O)C(=O)N[C@H]1CSSC[C@@H](C(=O)N[C@@H](Cc2c[nH]c3ccccc23)C(=O)N2CCC[C@H]2C(N)=O)NC(=O)[C@H](CC(=O)O)NC(=O)[C@H](Cc2c[nH]cn2)NC(=O)[C@H](Cc2c[nH]c3ccccc23)NC(=O)[C@H](CC(N)=O)NC(=O)[C@H](CC(N)=O)NC1=O
The molecule B6 came in with a Kd of 53 nM.

B7: SEQ ID NO 88 (peptide)
peptide: Ac-MWTACNNWHDCWP-NH2
modifications: disulfide 5-11
SMILES: CSCC[C@H](NC(C)=O)C(=O)N[C@@H](Cc1c[nH]c2ccccc12)C(=O)N[C@H](C(=O)N[C@@H](C)C(=O)N[C@H]1CSSC[C@@H](C(=O)N[C@@H](Cc2c[nH]c3ccccc23)C(=O)N2CCC[C@H]2C(N)=O)NC(=O)[C@H](CC(=O)O)NC(=O)[C@H](Cc2c[nH]cn2)NC(=O)[C@H](Cc2c[nH]c3ccccc23)NC(=O)[C@H](CC(N)=O)NC(=O)[C@H](CC(N)=O)NC1=O)[C@@H](C)O
The molecule B7 came in with a Kd of 86 nM.

B8: SEQ ID NO 84 (peptide)
peptide: Ac-MWTICNNWHDC[dA]P-NH2
modifications: disulfide 5-11
SMILES: CC[C@H](C)[C@H](NC(=O)[C@@H](NC(=O)[C@H](Cc1c[nH]c2ccccc12)NC(=O)[C@H](CCSC)NC(C)=O)[C@@H](C)O)C(=O)N[C@H]1CSSC[C@@H](C(=O)N[C@H](C)C(=O)N2CCC[C@H]2C(N)=O)NC(=O)[C@H](CC(=O)O)NC(=O)[C@H](Cc2c[nH]cn2)NC(=O)[C@H](Cc2c[nH]c3ccccc23)NC(=O)[C@H](CC(N)=O)NC(=O)[C@H](CC(N)=O)NC1=O
As for B8, the affinity, expressed as Kd, was 240 nM.

B9: SEQ ID NO 86 (peptide)
peptide: Ac-AWTICNNWHDCWP-NH2
modifications: disulfide 5-11
SMILES: CC[C@H](C)[C@H](NC(=O)[C@@H](NC(=O)[C@H](Cc1c[nH]c2ccccc12)NC(=O)[C@H](C)NC(C)=O)[C@@H](C)O)C(=O)N[C@H]1CSSC[C@@H](C(=O)N[C@@H](Cc2c[nH]c3ccccc23)C(=O)N2CCC[C@H]2C(N)=O)NC(=O)[C@H](CC(=O)O)NC(=O)[C@H](Cc2c[nH]cn2)NC(=O)[C@H](Cc2c[nH]c3ccccc23)NC(=O)[C@H](CC(N)=O)NC(=O)[C@H](CC(N)=O)NC1=O
B9 displayed a Kd of 7.6 nM.

B10: SEQ ID NO 89 (peptide)
peptide: Ac-MWTICANWHDCWP-NH2
modifications: disulfide 5-11
SMILES: CC[C@H](C)[C@H](NC(=O)[C@@H](NC(=O)[C@H](Cc1c[nH]c2ccccc12)NC(=O)[C@H](CCSC)NC(C)=O)[C@@H](C)O)C(=O)N[C@H]1CSSC[C@@H](C(=O)N[C@@H](Cc2c[nH]c3ccccc23)C(=O)N2CCC[C@H]2C(N)=O)NC(=O)[C@H](CC(=O)O)NC(=O)[C@H](Cc2c[nH]cn2)NC(=O)[C@H](Cc2c[nH]c3ccccc23)NC(=O)[C@H](CC(N)=O)NC(=O)[C@H](C)NC1=O
With B10, the Kd was 8.1 nM.

B11: SEQ ID NO 71 (peptide)
peptide: Ac-MWHICQEWATCWP-NH2
modifications: disulfide 5-11
SMILES: CC[C@H](C)[C@H](NC(=O)[C@H](Cc1c[nH]cn1)NC(=O)[C@H](Cc1c[nH]c2ccccc12)NC(=O)[C@H](CCSC)NC(C)=O)C(=O)N[C@H]1CSSC[C@@H](C(=O)N[C@@H](Cc2c[nH]c3ccccc23)C(=O)N2CCC[C@H]2C(N)=O)NC(=O)[C@H]([C@@H](C)O)NC(=O)[C@H](C)NC(=O)[C@H](Cc2c[nH]c3ccccc23)NC(=O)[C@H](CCC(=O)O)NC(=O)[C@H](CCC(N)=O)NC1=O
B11 showed a Kd of 47 nM.

B12: SEQ ID NO 72 (peptide)
peptide: Ac-MWTLCDTWDTCFP-NH2
modifications: disulfide 5-11
SMILES: CSCC[C@H](NC(C)=O)C(=O)N[C@@H](Cc1c[nH]c2ccccc12)C(=O)N[C@H](C(=O)N[C@@H](CC(C)C)C(=O)N[C@H]1CSSC[C@@H](C(=O)N[C@@H](Cc2ccccc2)C(=O)N2CCC[C@H]2C(N)=O)NC(=O)[C@H]([C@@H](C)O)NC(=O)[C@H](CC(=O)O)NC(=O)[C@H](Cc2c[nH]c3ccccc23)NC(=O)[C@H]([C@@H](C)O)NC(=O)[C@H](CC(=O)O)NC1=O)[C@@H](C)O
In the case of B12, the Kd came out at 24 nM.

A word on the Kd: it is the free concentration of one partner at which half of the binding sites on the other are occupied at equilibrium, for simple one-to-one binding. A high value points to a looser complex.
